Data taken from paper PMC9669022.

Experiments:
[1] = biological target: porcine brain tubulin (αβ-tubulin dimer) (porcine) (UniProt Q2XVP4)
[2] = biological target: porcine brain tubulin (αβ-tubulin dimer) (porcine) (UniProt Q2XVP4); remark: listed apart in the source
[3] = biological target: porcine brain tubulin (αβ-tubulin dimer) (porcine) (UniProt Q2XVP4); remark: listed apart in the source

In the case of “Pbkinesin-8B-MD-L12^KIF5B (domain or fragment)”, the KmMT of the GMPCPP-MT-stimulated ATPase, fold change against WT [1] was 20 fold.

Pbkinesin-8B-MD (domain or fragment) showed a Km of the MT-stimulated ATPase (GMPCPP-MTs, NADH-coupled assay) [2] of 2.5 µM and a Km of the tubulin-stimulated ATPase (unpolymerised tubulin dimer, NADH-coupled assay) [3] of 7.6 µM.

In the case of “Pbkinesin-8B-MD-L2^KIF5B (domain or fragment)”, the Km of the GMPCPP-MT-stimulated ATPase, fold change against WT [1] was 2 fold.
